# Literature values, collected in PMC5724930.
# Where two headings read alike, the source gives them in different places.
# Columns and labels:
# [1] = target: proPanD (Escherichia coli) (UniProt P0A790)
# [2] = target: proPanD (Escherichia coli) (UniProt P0A790); remark: listed apart in the source
# proPanD (Escherichia coli), sequence (P0A790 whole entry): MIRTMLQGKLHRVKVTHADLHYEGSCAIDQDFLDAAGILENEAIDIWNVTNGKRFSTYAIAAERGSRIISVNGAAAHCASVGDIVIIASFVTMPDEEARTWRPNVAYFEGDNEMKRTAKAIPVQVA
# PanZ, sequence (P37613 whole entry): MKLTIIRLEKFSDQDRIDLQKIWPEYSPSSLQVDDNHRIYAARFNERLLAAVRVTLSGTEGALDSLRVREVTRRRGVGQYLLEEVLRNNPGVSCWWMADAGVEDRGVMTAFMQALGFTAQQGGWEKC
substance,measurement,setting,value
PanZ (from UniProt P37613),Kd,[1],0.1 µM
same,Kd,[2],4 µM
